Article PMC2408645
Read-outs that look alike come from different tables or passages of the source.

Experiments:
Assay in all cases: two-hybrid
[1] = biological target: KpsC (E. coli K1 (strain EV36)) (UniProt P42217)
[2] = biological target: NeuS (E. coli K1 (strain EV36))
[3] = biological target: KpsC (E. coli K1 (strain EV36)) (UniProt P42217); remark: listed apart in the source
[4] = biological target: NeuS (E. coli K1 (strain EV36)); remark: listed apart in the source

Substance	beta-galactosidase activity, early [1]	beta-galactosidase activity, late [1]	beta-galactosidase activity, early [2]	beta-galactosidase activity, late [2]	beta-galactosidase activity, early [3]	beta-galactosidase activity, late [3]	beta-galactosidase activity, early [4]	beta-galactosidase activity, late [4]
KpsC (from UniProt P42217 1-675) (natural protein)	200 Miller units	760 Miller units	420 Miller units	5540 Miller units	220 Miller units	540 Miller units	560 Miller units	4700 Miller units
KpsE (natural protein)	230 Miller units	1170 Miller units	140 Miller units	1050 Miller units	65 Miller units	120 Miller units		
NeuE (natural protein)			16 Miller units				17 Miller units	
NeuS (enzyme)	15 Miller units				18 Miller units			
